Test results taken from patent publication US20140242061.

Target: T1, human macrophage mannose receptor (MMR), P22897
T1 chain: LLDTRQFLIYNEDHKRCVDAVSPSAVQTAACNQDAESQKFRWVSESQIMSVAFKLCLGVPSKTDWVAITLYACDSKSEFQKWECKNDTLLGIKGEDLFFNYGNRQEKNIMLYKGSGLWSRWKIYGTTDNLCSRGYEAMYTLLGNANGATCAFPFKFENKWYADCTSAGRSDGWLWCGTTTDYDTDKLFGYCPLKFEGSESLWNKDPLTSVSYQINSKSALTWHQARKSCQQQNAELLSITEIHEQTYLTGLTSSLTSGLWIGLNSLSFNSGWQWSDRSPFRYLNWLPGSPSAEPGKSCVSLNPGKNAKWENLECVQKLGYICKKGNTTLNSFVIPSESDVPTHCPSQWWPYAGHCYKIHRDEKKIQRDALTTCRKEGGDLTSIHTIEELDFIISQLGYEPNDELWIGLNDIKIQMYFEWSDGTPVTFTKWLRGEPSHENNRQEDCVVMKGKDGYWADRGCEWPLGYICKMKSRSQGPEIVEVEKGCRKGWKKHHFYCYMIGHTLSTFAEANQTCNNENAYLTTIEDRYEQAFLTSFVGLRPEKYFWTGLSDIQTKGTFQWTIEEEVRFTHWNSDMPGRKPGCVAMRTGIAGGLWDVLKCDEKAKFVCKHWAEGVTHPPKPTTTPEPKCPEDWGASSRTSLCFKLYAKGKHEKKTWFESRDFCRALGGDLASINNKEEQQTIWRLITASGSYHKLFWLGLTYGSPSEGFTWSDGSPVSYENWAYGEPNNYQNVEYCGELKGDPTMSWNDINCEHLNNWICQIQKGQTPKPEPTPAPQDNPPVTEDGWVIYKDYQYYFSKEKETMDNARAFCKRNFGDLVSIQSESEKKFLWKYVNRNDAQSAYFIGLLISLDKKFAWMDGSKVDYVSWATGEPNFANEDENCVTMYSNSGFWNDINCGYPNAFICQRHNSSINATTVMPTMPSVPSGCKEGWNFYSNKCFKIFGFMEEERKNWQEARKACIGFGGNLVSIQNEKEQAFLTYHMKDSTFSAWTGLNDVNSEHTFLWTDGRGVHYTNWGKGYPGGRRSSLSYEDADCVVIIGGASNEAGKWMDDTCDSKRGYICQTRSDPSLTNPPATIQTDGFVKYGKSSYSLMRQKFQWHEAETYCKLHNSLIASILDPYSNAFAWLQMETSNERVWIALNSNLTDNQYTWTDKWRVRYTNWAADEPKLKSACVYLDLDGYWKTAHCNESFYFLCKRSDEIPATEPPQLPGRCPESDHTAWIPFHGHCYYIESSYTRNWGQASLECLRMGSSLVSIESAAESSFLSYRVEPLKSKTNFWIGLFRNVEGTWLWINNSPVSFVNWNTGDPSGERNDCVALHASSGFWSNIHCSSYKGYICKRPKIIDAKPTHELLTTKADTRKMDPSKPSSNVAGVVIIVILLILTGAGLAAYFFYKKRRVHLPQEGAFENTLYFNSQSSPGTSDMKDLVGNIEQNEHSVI

B1: velaglucerase alfa (protein)
chain: ARPCIPKSFGYSSVVCVCNATYCDSFDPPTFPALGTFSRYESTRSGRRMELSMGPIQANHTGTGLLLTLQPEQKFQKVKGFGGAMTDAAALNILALSPPAQNLLLKSYFSEEGIGYNIIRVPMASCDFSIRTYTYADTPDDFQLHNFSLPEEDTKLKIPLIHRALQLAQRPVSLLASPWTSPTWLKTNGAVNGKGSLKGQPGDIYHQTWARYFVKFLDAYAEHKLQFWAVTAENEPSAGLLSGYPFQCLGFTPEHQRDFIARDLGPTLANSTHHNVRLLMLDDQRLLLPHWAKVVLTDPEAAKYVHGIAVHWYLDFLAPAKATLGETHRLFPNTMLFASEACVGSKFWEQSVRLGSWDRGMQYSHSIITNLLYHVVGWTDWNLALNPEGGPNWVRNFVDSPIIVDITKDTFYKQPMFYHLGHFSKFIPEGSQRVGLVASQKNDLDAVALMHPDGSAVVVVLNRSSKDVPLTIKDPAVGFLETISPGYSIHTYLWRRQ
internalization rate in U937-derived macrophages (4-MU-glc activity assay), relative to imiglucerase: velaglucerase alfa is internalized up to 2.5-fold more efficiently than imiglucerase
